# Source: patent publication US20210186964
# B1: USP1/UAF1 complex (WT-USP1/UAF1) (protein)
# chain 1: MPGVIPSESNGLSRGSPSKKNRLSLKFFQKKETKRALDFTDSQENEEKASEYRASEIDQVVPAAQSSPINCEKRENLLPFVGLNNLGNTCYLNSILQVLYFCPGFKSGVKHLFNIISRKKEALKDEANQKDKGNCKEDSLASYELICSLQSLIISVEQLQASFLLNPEKYTDELATQPRRLLNTLRELNPMYEGYLQHDAQEVLQCILGNIQETCQLLKKEEVKNVAELPTKVEEIPHPKEEMNGINSIEMDSMRHSEDFKEKLPKGNGKRKSDTEFGNMKKKVKLSKEHQSLEENQRQTRSKRKATSDTLESPPKIIPKYISENESPRPSQKKSRVKINWLKSATKQPSILSKFCSLGKITTNQGVKGQSKENECDPEEDLGKCESDNTTNGCGLESPGNTVTPVNVNEVKPINKGEEQIGFELVEKLFQGQLVLRTRCLECESLTERREDFQDISVPVQEDELSKVEESSEISPEPKTEMKTLRWAISQFASVERIVGEDKYFCENCHHYTEAERSLLFDKMPEVITIHLKCFAASGLEFDCYGGGLSKINTPLLTPLKLSLEEWSTKPTNDSYGLFAVVMHSGITISSGHYTASVKVTDLNSLELDKGNFVVDQMCEIGKPEPLNEEEARGVVENYNDEEVSIRVGGNTQPSKVLNKKNVEAIGLLGGQKSKADYELYNKASNPDKVASTAFAENRNSETSDTTGTHESDRNKESSDQTGINISGFENKISYVVQSLKEYEGKWLLFDDSEVKVTEEKDFLNSLSPS
# chain 2: not shown
# Target: Ub-AMC (ubiquitin-AMC), P0CG47
# Sequence (P0CG47 whole entry, looked up): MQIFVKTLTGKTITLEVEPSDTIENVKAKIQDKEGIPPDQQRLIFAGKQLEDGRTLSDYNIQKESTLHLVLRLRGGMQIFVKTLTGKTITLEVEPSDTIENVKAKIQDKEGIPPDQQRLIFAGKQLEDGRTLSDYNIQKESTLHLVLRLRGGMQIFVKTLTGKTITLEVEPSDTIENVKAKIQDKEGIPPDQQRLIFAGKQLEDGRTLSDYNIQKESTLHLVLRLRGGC
protein,measurement,value
B1,"Km (Ub-AMC deubiquitination assay, USP1/UAF1 complex alone, no DNA)",decreasing the Km from 0.79 µM to 0.33 µM
same,"Km (Ub-AMC deubiquitination assay, USP1/UAF1 complex with fork DNA)",decreasing the Km from 0.79 µM to 0.33 µM
